Assay results from IntAct's records for PubMed 16000308.

B1: Melanoma-associated antigen D1 (Homo sapiens), Q9Y5V3 (parent)
chain: MAQKMDCGAGLLGFQAEASVEDSALLMQTLMEAIQISEAPPTNQATAAASPQSSQPPTANEMADIQVSAAAARPKSAFKVQNATTKGPNGVYDFSQAHNAKDVPNTQPKAAFKSQNATPKGPNAAYDFSQAATTGELAANKSEMAFKAQNATTKVGPNATYNFSQSLNANDLANSRPKTPFKAWNDTTKAPTADTQTQNVNQAKMATSQADIETDPGISEPDGATAQTSADGSQAQNLESRTIIRGKRTRKINNLNVEENSSGDQRRAPLAAGTWRSAPVPVTTQNPPGAPPNVLWQTPLAWQNPSGWQNQTARQTPPARQSPPARQTPPAWQNPVAWQNPVIWPNPVIWQNPVIWPNPIVWPGPVVWPNPLAWQNPPGWQTPPGWQTPPGWQGPPDWQGPPDWPLPPDWPLPPDWPLPTDWPLPPDWIPADWPIPPDWQNLRPSPNLRPSPNSRASQNPGAAQPRDVALLQERANKLVKYLMLKDYTKVPIKRSEMLRDIIREYTDVYPEIIERACFVLEKKFGIQLKEIDKEEHLYILISTPESLAGILGTTKDTPKLGLLLVILGVIFMNGNRASEAVLWEALRKMGLRPGVRHPLLGDLRKLLTYEFVKQKYLDYRRVPNSNPPEYEFLWGLRSYHETSKMKVLRFIAEVQKRDPRDWTAQFMEAADEALDALDAAAAEAEARAEARTRMGIGDEAVSGPWSWDDIEFELLTWDEEGDFGDPWSRIPFTFWARYHQNARSRFPQTFAGPIIGPGGTASANFAANFGAIGFFWVE
partner: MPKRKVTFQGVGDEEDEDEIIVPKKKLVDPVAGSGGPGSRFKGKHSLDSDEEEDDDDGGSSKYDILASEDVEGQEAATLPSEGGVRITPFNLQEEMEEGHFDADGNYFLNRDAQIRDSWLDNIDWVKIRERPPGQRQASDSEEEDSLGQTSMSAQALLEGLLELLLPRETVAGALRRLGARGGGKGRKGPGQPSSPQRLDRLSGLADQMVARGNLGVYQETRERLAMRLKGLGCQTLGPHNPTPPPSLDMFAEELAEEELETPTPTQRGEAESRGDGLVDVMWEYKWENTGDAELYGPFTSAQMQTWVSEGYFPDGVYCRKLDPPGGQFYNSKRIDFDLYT

Variants of: B1
Settings: with cd2b2_human CD2BP2, O95400

Effect of a mutation on the interaction, by site and new letter:
P384: Q disrupting interaction strength | C disrupting interaction strength | V disrupting interaction strength | L disrupting interaction strength | Y disrupting interaction strength | K disrupting interaction strength | E disrupting interaction strength | N disrupting interaction strength | T disrupting interaction strength | S disrupting interaction strength | D disrupting interaction strength | A disrupting interaction strength | R disrupting interaction strength | H disrupting interaction strength | F disrupting interaction strength | G disrupting interaction strength | W disrupting interaction strength | I disrupting interaction strength | M disrupting interaction strength
Q387: C disrupting interaction strength | D disrupting interaction strength | E disrupting interaction strength | A decreasing interaction strength | W disrupting interaction strength | Y disrupting interaction strength
P383: D disrupting interaction strength | W disrupting interaction strength | T disrupting interaction strength | N disrupting interaction strength | G disrupting interaction strength | R disrupting interaction strength | M disrupting interaction strength | Y disrupting interaction strength | Q disrupting interaction strength | A disrupting interaction strength | K disrupting interaction strength | V disrupting interaction strength | I disrupting interaction strength | L disrupting interaction strength | H disrupting interaction strength | F disrupting interaction strength | E disrupting interaction strength | S disrupting interaction strength | C disrupting interaction strength
Q381: E decreasing interaction strength | C decreasing interaction strength | D decreasing interaction strength | Y decreasing interaction strength
W386: H disrupting interaction strength | P decreasing interaction strength | K decreasing interaction strength | S decreasing interaction strength | D disrupting interaction strength | M decreasing interaction strength | I decreasing interaction strength | E disrupting interaction strength | C disrupting interaction strength | A disrupting interaction strength | N disrupting interaction strength | G disrupting interaction strength | T disrupting interaction strength | V disrupting interaction strength
G379: E decreasing interaction strength | D decreasing interaction strength | A decreasing interaction strength | W decreasing interaction strength | C decreasing interaction strength
W380: A decreasing interaction strength | E disrupting interaction strength | D decreasing interaction strength
T388: C decreasing interaction strength | D decreasing interaction strength | E decreasing interaction strength
T382: C disrupting interaction strength | N decreasing interaction strength | E disrupting interaction strength | M decreasing interaction strength | L disrupting interaction strength | D disrupting interaction strength
G385: D disrupting interaction strength | S disrupting interaction strength | E disrupting interaction strength | F disrupting interaction strength | Q disrupting interaction strength | K disrupting interaction strength | R decreasing interaction strength | C disrupting interaction strength | T disrupting interaction strength | A disrupting interaction strength | H disrupting interaction strength | L disrupting interaction strength | Y disrupting interaction strength | M disrupting interaction strength | N disrupting interaction strength | W disrupting interaction strength | I disrupting interaction strength | P decreasing interaction strength
P378: W decreasing interaction strength | A decreasing interaction strength | G decreasing interaction strength | E decreasing interaction strength | D decreasing interaction strength | H decreasing interaction strength | M decreasing interaction strength | C decreasing interaction strength
